No end group written: not given here. *: point of attachment. Biotin = O=C1N[C@H]2[C@H](CS[C@H]2CCCCC(=O)*)N1
T1: label-free PPARγ LBD (human, UniProt P37231-1 234-505)
T1 construct: PPARγ isoform 2 LBD, human, UniProt P37231-1, residues 234-505; also called PPARγ LBD without sGFP-tag; PPARγ LBD devoid of any label; source: E. coli T7 express, coexpressed with GroEL/ES, purified (Ni IMAC, TEV, reverse IMAC, SEC); not shown: His10, N-terminal, cleaved
T1 sequence (looked up): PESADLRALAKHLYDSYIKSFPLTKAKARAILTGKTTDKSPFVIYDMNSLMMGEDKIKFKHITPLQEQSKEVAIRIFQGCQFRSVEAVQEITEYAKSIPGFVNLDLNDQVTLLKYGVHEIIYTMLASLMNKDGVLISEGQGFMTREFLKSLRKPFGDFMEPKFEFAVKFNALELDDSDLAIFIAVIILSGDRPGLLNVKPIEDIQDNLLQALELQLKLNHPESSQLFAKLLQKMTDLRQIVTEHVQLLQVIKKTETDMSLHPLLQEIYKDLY

T2: sGFP-PPARγ LBD (human, UniProt P37231-1 234-505)
T2 construct: PPARγ isoform 2 LBD, human, UniProt P37231-1, residues 234-505; also called PPARγ coupled to sGFP; source: E. coli T7 express, coexpressed with GroEL/ES, purified (Ni IMAC, TEV, reverse IMAC, SEC); not shown: His10, N-terminal, cleaved; sGFP, N-terminal, kept
T2 sequence (looked up): T1 sequence (looked up)

B1: biotinylated CBP-1 cofactor peptide (CREB-binding protein coactivator motif 1) (peptide)
peptide: Biotin-NLVPDAASKHKQLSELLRGGSGS
notes: coupled to Tb-streptavidin in the assay; also called CBP-1 peptide; CBP-derived peptide; source: bought: Eurogentec GmbH
B2: free RXRα total mutant LBD (unlabeled) (domain or fragment, human, UniProt P19793-1 223-462, looked up)
chain: TSSANEDMPVERILEAELAVEPKTETYVEANMGLNPSSPNDPVTNICQAADKQLFTLTEWAERIPHFSELPLDDQTILLRAGWNELLIASFSHRSIAVKDGILLATGLHVHRNSAHSAGVGAIFDRVLTELVSKMRDMQMDKTELGCLRAIVLFNPDSKGLSNPAEVEALREKVYASLEAYCKHKYPEQPGRFAKLLLRLPALRSIGLKCLEHLFFFKLIGDTPIDTYLMRMLEAPHQMT
notes: retinoid X receptor alpha (RXRα) LBD, human, residues 223-462 (pMal construct), five AF-2 mutations; also called unlabeled recruitment-incapable RXRα LBD (total mutant); unlabeled mutant RXRα LBD; source: E. coli T7 express, coexpressed with GroEL/ES, purified (Ni IMAC, MBP-TEV, amylose flow through, SEC); not shown: MBP, N-terminal, cleaved; His8, N-terminal, cleaved
B3: sGFP-PPARγ LBD:RXRα total mutant LBD (unlabeled) heterodimer (complex, human)
chain 1: T1 sequence (looked up)
chain 2: B2 chain
notes: PPARγ isoform 2 LBD, human, UniProt P37231-1, residues 234-505; RXRα LBD, human, residues 223-462, five AF-2 mutations; also called LBD:LBD heterodimer with RXRα; source: mixed from the purified E. coli proteins (100 nM sGFP-PPARγ LBD, RXRα total mutant LBD titrated); not shown: His10, N-terminal, cleaved; sGFP, N-terminal, kept; MBP, N-terminal, cleaved; His8, N-terminal, cleaved

How the values were obtained:
Conditions in all cases: both partners purified
label-free PPARγ LBD = target: T1, label-free PPARγ LBD; assay: AlphaScreen or HTRF; heterodimer coactivator recruitment; 100 nM label-free PPARγ LBD, 2 μM sGFP-RXRα LBD total mutant, 12 nM biotinylated CBP-1 on 12 nM Tb-SA; rosiglitazone titrated (also with 50 μM SR11237); 0.1% CHAPS, 1% DMSO, RT
sGFP-PPARγ LBD = target: T2, sGFP-PPARγ LBD; assay: AlphaScreen or HTRF; unlabeled RXRα total mutant LBD titrated (up to 8 μM) against 100 nM sGFP-PPARγ LBD, 12 nM Tb-SA, 12 nM biotinylated CBP-1; no ligand (or SR11237 at ≤1 nM)
[1] = target: B1; assay: as above

B1
binding result (label-free PPARγ LBD): binds

B2
binding result (sGFP-PPARγ LBD): binds

B3
CBP-1 recruitment relative to that seen with rosiglitazone (%) [1]: ≤ 5%
